Data published in publication PMC11890623, “Pseudomonas aeruginosa acyl-CoA dehydrogenases and structure-guided inversion of their substrate specificity” (Nature Communications, 2025).

Assays:
Assay in all cases: Michaelis-Menten kinetics of purified enzyme (KM)
Assay type in all cases: biochemical, Pseudomonas aeruginosa
Conditions in all cases: FAD
[1] = substrate: CCCC(=O)SCCNC(=O)CCNC(=O)[C@H](O)C(C)(C)COP(=O)(O)OP(=O)(O)OC[C@H]1O[C@@H](n2cnc3c(N)ncnc32)[C@H](O)[C@@H]1OP(=O)(O)O
[2] = substrate: CCCCCC(=O)SCCNC(=O)CCNC(=O)[C@H](O)C(C)(C)COP(=O)(O)OP(=O)(O)OC[C@H]1O[C@@H](n2cnc3c(N)ncnc32)[C@H](O)[C@@H]1OP(=O)(O)O
[3] = substrate: CCCCCCCC(=O)SCCNC(=O)CCNC(=O)[C@H](O)C(C)(C)COP(=O)(O)OP(=O)(O)OC[C@H]1O[C@@H](n2cnc3c(N)ncnc32)[C@H](O)[C@@H]1OP(=O)(O)O

B1: FadE2 (Pseudomonas aeruginosa PAO1) (protein)
chain: MADYKAPLRDMRFVLNEVFEVSRLWAQLPALAEVVDAETAAAILEEAGKVTAGTIAPLNRPGDEEGCQWNAGAVSTPAGFPEAYRTYAEGGWVGVGGDPAYGGMGMPKVISAQVEELVNSANLSFGLYPMLTAGACLALNAHASDELKDKYLPNMYAGIWAGSMCLTEPHAGTDLGIIRTRAEPQADGSYKISGTKIFITGGEHDLTENIIHLVLAKLPDAPAGPKGISLFLVPKVLVNADGSLGEKNSLGCGSIEHKMGIKASATCVMNFDGATGWLVGEVNKGLAAMFTMMNYERLGVGIQGLATGERSYQSAIEYARERIQSRAPTGPVAKDKAADPIIVHPDVRRMLLTMKALNEGGRAFSSYVAMQLDTAKYSEDAVTRKRAEELVALLTPVAKAFLTDMGLETTIHGQQIFGGHGFIREWGQEQLVRDCRITQIYEGTNGIQALDLVGRKVIGSGGAFSRHFTDEIKAFVASADEALGEFSKPLAAAVENLEELTAWLLDRAKGNPNEIGAASVEYLHVFGYTAYAYMWALMARTALAKQGEDDFYASKLGTARFYFARLLPRIHSLSASVRAGSESLYLLDAEQF
notes: full-length ORF, His6 tag removed by TEV
Work on B1 yielded a Km [1] of 10.35 ± 1.06 µM, a Km [2] of 14.6 ± 1.43 µM and a Km [3] of 21.59 ± 1.23 µM.
